# Measurements reported in article PMC10570036, “Yeast transcription factor Msn2 binds to G4 DNA”.
# T1: GST-Msn2(596-704) zinc-finger domain (Saccharomyces cerevisiae, UniProt P33748 596-704)
# T1 sequence: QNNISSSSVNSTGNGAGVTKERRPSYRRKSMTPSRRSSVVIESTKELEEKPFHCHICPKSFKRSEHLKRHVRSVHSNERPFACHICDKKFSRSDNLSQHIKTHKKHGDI
# B1: dsCTT1STREMut (dsDNA)
# DNA 1: CTCTTTTTCATGTGTATCACCGGTATGTGTCCAATCTGTG
# DNA 2: CACAGATTGGACACATACCGGTGATACACATGAAAAAGAG
# B2: dsCTT1 (dsDNA)
# DNA 1: CTCTTTTTCAAGGGGATCACCGGTAAGGGGCCAATCTGTG
# DNA 2: CACAGATTGGCCCCTTACCGGTGATCCCCTTGAAAAAGAG
# Tests used:
# [1] = target: T1, GST-Msn2(596-704) zinc-finger domain; experiment: EMSA; folded in K+ or Li+; no significant interaction; EMSA: oligos (0.1 uM) folded in 10 mM Tris-HCl pH 7.5, 100 mM KCl or LiCl; binding in 10 mM Tris-HCl pH 8.0, 1 mM DTT, 0.01% NP-40, 5% glycerol, 50 uM ZnSO4, room temperature 30 min; pull-down: 400 pmol biotin oligo folded in 100 mM KCl or LiCl, streptavidin beads, yeast whole cell lysate; conditions: protein: recombinant; tags: N-terminal GST (pGEX4T1); label: 5' Cy5; G4
# [2] = target: T1, GST-Msn2(596-704) zinc-finger domain; experiment: EMSA; folded in 100 mM K+; 50 uM Zn2+; EMSA: oligos (0.1 uM) folded in 10 mM Tris-HCl pH 7.5, 100 mM KCl or LiCl; binding in 10 mM Tris-HCl pH 8.0, 1 mM DTT, 0.01% NP-40, 5% glycerol, 50 uM ZnSO4, room temperature 30 min; pull-down: 400 pmol biotin oligo folded in 100 mM KCl or LiCl, streptavidin beads, yeast whole cell lysate; conditions: protein: recombinant, tags: N-terminal GST (pGEX4T1), label: 5' Cy5
# [3] = target: T1, GST-Msn2(596-704) zinc-finger domain; experiment: EMSA; folded in 100 mM K+; EMSA: oligos (0.1 uM) folded in 10 mM Tris-HCl pH 7.5, 100 mM KCl or LiCl; binding in 10 mM Tris-HCl pH 8.0, 1 mM DTT, 0.01% NP-40, 5% glycerol, 50 uM ZnSO4, room temperature 30 min; pull-down: 400 pmol biotin oligo folded in 100 mM KCl or LiCl, streptavidin beads, yeast whole cell lysate; conditions: protein: recombinant, tags: N-terminal GST (pGEX4T1), label: 5' Cy5
# [4] = target: T1, GST-Msn2(596-704) zinc-finger domain; experiment: EMSA; EMSA: oligos (0.1 uM) folded in 10 mM Tris-HCl pH 7.5, 100 mM KCl or LiCl; binding in 10 mM Tris-HCl pH 8.0, 1 mM DTT, 0.01% NP-40, 5% glycerol, 50 uM ZnSO4, room temperature 30 min; pull-down: 400 pmol biotin oligo folded in 100 mM KCl or LiCl, streptavidin beads, yeast whole cell lysate; conditions: protein: recombinant; tags: N-terminal GST (pGEX4T1); label: 5' Cy5 on sense strand; blunt
# [5] = target: T1, GST-Msn2(596-704) zinc-finger domain; experiment: EMSA; 100 mM K+; EMSA: oligos (0.1 uM) folded in 10 mM Tris-HCl pH 7.5, 100 mM KCl or LiCl; binding in 10 mM Tris-HCl pH 8.0, 1 mM DTT, 0.01% NP-40, 5% glycerol, 50 uM ZnSO4, room temperature 30 min; pull-down: 400 pmol biotin oligo folded in 100 mM KCl or LiCl, streptavidin beads, yeast whole cell lysate; conditions: protein: recombinant; tags: N-terminal GST (pGEX4T1); label: 5' Cy5 on sense strand; blunt
binder,measurement,setting,value
CCCGGGCGGGCGCGAGGGAGGGGAGG (structured_DNA) [c-KIT2Long],binding result,[1],no binding
GGACCGGGGGCACACCGGGGTAGGGGGTCCGGAGGGTTAAC (structured_DNA) [Cy5-ATG39pG4],Kd,[2]; intramolecular parallel G4,30.2 ± 7.2 nM
CCGCTGGGCAGGTCAGGGCAGGGGCTCTCAGGGGGGCGCCA (structured_DNA) [Cy5-TPS1pG4],binding result,[3]; G4,binds
GAGCTGGGGTGAGCTGGGCTGAGCTGGGGTGAGCTGGGCTGAGCT (structured_DNA) [Cy5-SµG],binding result,[3]; G4,binds
B1,binding result,[4],no binding
TGGGTGTTGTTGGGGGAGGGAAATGGGT (structured_DNA) [Cy5-BRCA1-G3],Kd,[2]; parallel G4 in K+,37.8 ± 11.4 nM
CCGCTGAGCAGGTCAGAGCAGAGACTCTCAGAGAGACGCCA (ssDNA) [Cy5-TPS1pG4Mut],binding result,[3],no binding
GGACCGAGAGCACACCGAGATAGAGAGTCCGGAGAGTTAAC (ssDNA) [Cy5-ATG39pG4Mut],binding result,[3],no binding
GGGCGGGCGCGAGGGAGGGG (structured_DNA) [Cy5-c-KIT2],binding result,[3]; G4,no binding
ATTCTTGGGGCTGGGGTCCCTTGGGGAACTGTATTGGGTGAACC (structured_DNA) [Cy5-ATG7 G4],binding result,[3]; G4,binds
B2,binding result,[5],binds
